# Reference: patent publication US20240245805A1 (Orna Therapeutics, Inc., priority 2020, published 2024)
# Test system: not given
# Details: Table 1, lipids of Formula I; cited from earlier work
row,Molecule,pKa
1,CCCCCCCCC(CCCCCC)CCCOC(=O)CCCCCN(CCCCCC(=O)OCC(CCCCCC)CCCCCCCC)CCN(C)C (centres unmarked) [Lipid I-22],6.53

# Same assay, conditions: Table 2, lipids of Formula (II); cited from earlier work
row,Molecule,pKa
1,CCCCCCCCC(=O)N(CCCN(C)C)C(CCCCCCCCC(=O)OCC(CCCC)CCCC)CCCCCCCCC(=O)OCC(CCCC)CCCCCC (centres unmarked) [II-9],6.27
2,CCCCCCCCC(CCCC)COC(=O)CCCCCCCCC(CCCCCCCCC(=O)OCC(CCCC)CCCCCC)N(CCCN(C)C)C(=O)C(CC)CCCCC (centres unmarked) [II-35],5.97

# Test system: HEK293 cells
# Type: cell-based, human
# Details: circular RNA encoding Gluc with the listed IRES (UTR truncated to 675 nt) transfected into HEK293 cells; supernatant after 24 hours
row,Molecule,Expression (luminescence from secreted Gluc protein)
1,"EV 30 (nucleic acid, listed as Enterovirus sp., lipid formulation) AAGCAAGGCAAACCTGACCAATAGTAGGTGTGGCACACCAGCCGCATTTTGGTCAAGCACTTCTGTTTCCCCGGACCGAGTATCAATAAGCTGCTCACGCGGCTGAAGGAGAAACCGTTCGTTACCCGACCAGCTACTTCGAGAAACCTAGTAACACTATGAACGTTGCGGAGTGTTTCGTTCAGCACTTCCCCCGTGTAGATCAGGTCGATGAGTCACCGCATTCCTCACGGGTGACCGTGGCGGTGGCTGCGTTGGCGGCCTGCCTACGGGTTCGCCCGTAGGACGCTCTAATACCGACATGGTGTGAAGAGTCCATTGAGCTAGCTGGTAGTCCTCCGGCCCCTGAATGCGGCTAATCCTAACTGCGGAGCAGGTGCTCACAGACCAGTGAGTAGCCTGTCGTAACGGGCAACTCTGCAGCGGAACCGACTACTTTGGGTGTTTTTCCTTTTTTCTTCTCTTATATTGGCTGCTTATGGTGACAATTAAAGAATTGTTACCATATAGCTATTGGATTGGCCATCCGGTGACGAGCAGAGCCATTGTTTACCTCTTTGTTGGATTTGTACCTTTGAACCACAAAGTCTTGAATACCATTCATCTCATTTTAAAGTTCAACTCAGCTAAAAGAAA",5.48E+06
2,"EV J 1631 (nucleic acid, listed as Enterovirus sp., lipid formulation) CACCCTGAGGGCCCACGTGGCGTAGTACTCTGGTATCAAGGTACCTTTGTACGCCTATTTTATTTCCCTTCCCCCACAGTAACTTAGAAGCTTATCTCATAGTTCAACAGTAGGGTCACTAACCAAGTGGCTCAGCGAACAAGCACTTCTGTTTCCCCGGTCCTAGTACCTGTGAAGCTGTACCCACGGCGGAAGGGGAAAAAGATCGTTATCCGGCCCCCTACTTCGGAAAGCCTAGTAACACCATTGAAGCAATCGAGTGTTGCGCTCAGCACAGTAACCCCTGTGTAGCTTTGGTTGATGAGTCTGGGCACTCCCCACTGGCGACAGCGGCCCAGGCTGCGTTGGCGGCCAACCGACTCGGGCAACCGGGTCGGACGCTCGTTTGTGGACATGGTGTGAAGAGCCTACTGAGCTAGAGGGTAGTCCTCCGGCCCCTGAATGCGGATAATCCTAACCCCGGAGCACCCACACTCAATCCAGAGTGCAGGATGTCGTAACGCGTAAGTCTGGGACGGAACCGACTACTTTGGGTGTCCGTGTTTCCTGTTTTACTTACTTTGGCTGCTTATGGTGACAATCTAGTGTTGTTACCATATAGCTATTGGATTGGCCATCCGGTGTTTTGAATTGTGTGTTTATACTAATTCTTTTACATATCACAGACAACCAAAT",9.88E+07
3,"PSIV (2x mut for Xbal) (nucleic acid, lipid formulation) DNA: GCAAAATGGGTACGTAGTTAACCACTGCGTATCAGGATTGCAGGCCACGAAGGGTATTTGCATATCTTTCTATGCGGTATTACGGCTTAAAACCCGTTGTATCTTGTTGTTTGACTGCCTGTATCACTAGTGGCCATTTTATTTAGGTTAGAGACCCCTGATAGTAGGAGAGTTACAAACTCTTTAAAAATTGTTGACCCCGGAAAAGATGGTGACCCCTGTAAGTAGTTGATCAAGAAGATCTATGCGCTGGCATAGTAATCCAGTGTTTCCTGTTTTAGGATGACCTCTGAAAGTAGATGACCGTGGAAAGTCACGTAGTGCCCCAATAAGCACGTTTGGGCAGCGTGCGCTATCACAAGGCTTGATCTCCGAGGAGCCCCTTGTTTTAGCTGGCTGGAAGCCAATGATCTTAAGTAGATAAGTGCTGTTGCTTGTAGTTCAACAGAAAGCTTTGAGTACGTCTTTCTTGCGAGAAAGAACACATGCATTCTTATGCTCTCAATTCTATTATTTTTATTTTGGGCGAAAGGAAAGCTCTCACGCGAGTACGAATAGCCAACCCTTTAT",9.70E+04
4,"EV D94 (nucleic acid, listed as Enterovirus sp., lipid formulation) CGTGGCGGCCAGTACTCTGGTATCACGGTACCTTTGTACGCCTGTTTTATATCCCCTTCCCCCGCAACTTAGAAGAAAACAAATCAAGTTCACTAGGAGGGGGTACAAACCAGTACCACCACGAACAAGCACTTCTGTTTCCCCGGTGATGTCGTATAGACTGTAACCACGGTTGAAAACGATTGATCCGTTATCCGCTCTTGTACTTCGAAAAGCCCAGTATCACCTTGGAATCTTCGATGCGTTGCGCTCAGCACTCAACCCCAGAGTGTAGCTTAGGTCGATGAGTCTGGACACTCCTCACCGGCGACGGTGGTCCAGGCTGCGTTGGCGGCCTACCTGTGGTCCAAAGCCACAGGACGCTAGTTGTGAACAAGGTGTGAAGAGCCTATTGAGCTACAAGAGAATCCTCCGGCCCCTGAATGCGGCTAATCCTAACCACGGAGCAAGGGTACACAAACCAGTGTATATCTTGTCGTAACGCGCAAGTCTGTGGCGGAACCGACTACTTTGGGTGTCCGTGTTTCCTTTTGTTTTTATCATGGCTGCTTATGGTGACAATCTAAGATTGTTATCATATAGCTGTTGGATTGGCCATCCGGTAATTTATTGAGATTTGAGCATTTGCTTGTTTCTTCAACAATTTCACCTATTCATTGCATTTCAGCAGTCAAA",9.25E+07
5,"EV K (nucleic acid, lipid formulation; Enterovirus K) TCAGCCTGACGCAAGTGCCTCCATTGGAGTCTCTCCAAGCCCTCCGGGGCTTGGAGGGCGCCGACCCCCTGCCTAGGGGGAGCCCACGACACGGCTGGAGTCCATTGGCACACCGCAGCCACGATTCAAGCCAGAATTGAAAGCGGGAAGCACTTCTGTCTCCCCGGTGTGGATCATACGCTGTACCCACGGCGAAAAGTGAAGCATCGTTACCCGACTCGGTACTTCGAGAAGCCCAGTACAGTTGTGGATCTCTGCAGGGTATACGCTCAGCGTGACCCCTACGTAGTTCCTTGAGATGGCTGAGAGAACACCCCACGGGCGACCGTGTCTCTCGGCGCGTGGCTCAAGGCCGGGCCTTCAGTGGCTCGGTGCCTTGCAGAGTGAAGCCTCCGAACAGCCTATTGAGCTACCGTTTAGCCTCCGCCCTCTTGAATGCGGCTAATCCTAACCATGGAGCGCCCGCCCACAGTCCAGTGGGTAGAGCGTCGTAACGCGCAAGTCCGTGGCGGAACCGACTACTTTAGAGTGGCGTGTTTCCAATTTATCCTTTATAAAGTTGCTTATGGTGACACCACAAGAGATCCACGATTTCTTGTTTCTTATCACTGAGACACAAGTCATATTCATCAATCTTTATTGCGGAATTAACTTGGTGCGTCCAAACACATCAGC",7.52E+07
6,"EV F1 BEV 261 (nucleic acid, listed as Enterovirus sp., lipid formulation) GCAATGCTGCACCAGTGCACTGGTACGCTAGTACCTTTTCACGGAGTAGATGGTATCCCTTACCCCGGAACCTAGAAGATTGCACACAAACCGACCAATAGGCGCACCGCATCCAGCCGTGCAGCGGTCAAGCACTTCTGTCTCCCCGGTCTGTAAAGATCGTTATCCGCCCGACCCACTACGAAAAGCCTAGTAACTGGCCAAGTGAACGCGAAGTTGCGCTCCGCCACAACCCCAGTGGTAGCTCTGGAAGATGGGGCTCGCACCACCCCCGTGGTAACACGGTTGCCTGCCCGCGTGTGCTTCCGGGTTCGGTCTCGTGCCGTTCACTTCAACTTCACGCAACCAGCCAAGAGCCTATTGTGCTGGGACGGTTTTCCTCCGGGGCCGTGAATGCTGCTAATCCCAACCTCCGAGCGTGTGCGCACAATCCAGTGTTGCTACGTCGTAACGCGTAAGTTGGAGGCGGAACAGACTACTTTCGGTACCCCGTGTTTCCTCTCATTTTATTTAATATTTTATGGTGACAATTGTTGAGATTTGCGCTCTTGCAACGTTGCCATTGAATATTGGCTTATACTATTTGGTTGCCTTTTACAAAACCTCTGATATACCCAGTTCTTACATTGATCTGCTTGTTTTTCTCAATTTGAAGTATAGACTACAAATAGCAAA",1.12E+07
7,"EV C102 (nucleic acid, listed as Enterovirus sp., lipid formulation) CTTTGTACGCCTGTTTTACATCCCCTCCCCCACGTAACTTTAGAAGCAATTCAACAAGTTCAATAGAGGGGGTACAAACCAGTATCACCACGAACAAGCACTTCTGTTTCCCCGGTGATTTTACATAAGCTGTGCCCACGGCTGAAAGTGAATGATCCGTTACCCGCTCGAGTACTTCGAAAAGCCTAGTATCGCTTTGGGATCTTCGACGCGTTGCGCTCAGCACTCTACCCCGAGTGTAGCTTAGGCTGATGAGTCTGGGCATTCCCCATCGGCGACGATGGCCCAGGCTGCGTTGGCGGCCTACCCATGGCTAACGCCATGGGACGCTAGTTGTGAACAAGGTGTGAAGAGCCTATTGAGCTACTCGAGAGTCCTCCGGCCCCTGAATGCGGCTAATCCCAACCACGGATCAGGTGCCTCCAACCCAGGAGGTGGCCTGTCGTAACGCGCAAGTCTGTGGCGGAACCGACTACTTTGGGTGTCCGTGTTTCCTTTTATCTTTTAAATGGCTGCTTATGGTGACAATCATAGATTGTTATCATAAAGCGAATTGGATTGGCCATCCGGTGAAATACAAACACATTATTTACTTGTTTGTTGGATTTACTCCGCTCACACAGCTTACTCCTAAGATAATATTTATTGTATTGCTGGTAAGGAGACACTATTATA",8.85E+07
8,"EV I (nucleic acid, lipid formulation; Enterovirus I) TTAGTACTTTCTCACGGGGATAGTGGTATCCCTCCCTAGTAATTTAGAAGACTTGAAAAACCGACCAATAGGCACCTCGCATCCAGCGGGGTAAAGGTCAAGCACTTCTGTTTCCCCGGGTCGAGTAGCGATAGACTGTGCCCACGGTCGAAGGTGAAACAACCCGTTATCCGACTTTGTACTTCGGGAAGCCTAGTACCACCAAAGATTATGCTTGGGGTTTCGCTCAGCACGACCCTGGTGTAGATCAGGCCGATGGATCACCGCATTCCTCACAGGCGACTGTGGCGGTGGTCGCGTGGCAGCCTGCCGATGGGGCAACCCATCGGACGCCAAGCATATGACAGGGTGTGAAGAGCCTACTGAGCTACAAAGTATTCCTCCGGCCCCTGAATGCGGCTAATCCCAACCACGGAGCATTTGCTACCAAACCAGGTAGTGGAATGTCGTAACGGGTAACTCTGTGGCGGAACCGACTACTTTGGGTGTCCGTGTTTCCTTTTAATTTATCATTCTGTATATGGTGACAACTATAGTGCTATCTCGATTTGCATTACTATTGTTGAGATTAAAACTTTATTACATTGTTGCATTTTACCCTTTGAGTGAGTTTTCACCTGAACAGATTAATTTACTCATCCTGTTTATATATTACAAGCAGAAATACTTGCAAAG",1.31E+08
